Reference: paper PMC5716544

Molecular target: functional streptavidin subunit with N-terminal cysteine and His-tag (Streptomyces avidinii) (UniProt P22629)
Assay: refolding of mixed subunits, purification via the His-tag of one subunit, SDS-PAGE of heated and unheated samples; solubilized inclusion bodies mixed at a 1:10 ratio before refolding; tetramer purified via the His-tag of the cysteine-bearing subunit; gel of samples heated 5 min to 95°C (monomers) and of unheated samples (tetramers), room temperature

Work on “functional SA subunit devoid of cysteine and His-tag (domain or fragment)” yielded a stoichiometry N of 3.
